Laboratory results taken from US20140072613A1, “Compositions and Methods for Treating Cutaneous Scarring” (priority 2012, published 2014).

Key:
Test in all cases: biochemical
Assay type in all cases: biochemical
266 human kinases [1] = target: T1, 266 human kinases (Homo sapiens, UniProt Q06418); conditions: Rse(h); 100 μM
T1 sequence (Q06418 41-890): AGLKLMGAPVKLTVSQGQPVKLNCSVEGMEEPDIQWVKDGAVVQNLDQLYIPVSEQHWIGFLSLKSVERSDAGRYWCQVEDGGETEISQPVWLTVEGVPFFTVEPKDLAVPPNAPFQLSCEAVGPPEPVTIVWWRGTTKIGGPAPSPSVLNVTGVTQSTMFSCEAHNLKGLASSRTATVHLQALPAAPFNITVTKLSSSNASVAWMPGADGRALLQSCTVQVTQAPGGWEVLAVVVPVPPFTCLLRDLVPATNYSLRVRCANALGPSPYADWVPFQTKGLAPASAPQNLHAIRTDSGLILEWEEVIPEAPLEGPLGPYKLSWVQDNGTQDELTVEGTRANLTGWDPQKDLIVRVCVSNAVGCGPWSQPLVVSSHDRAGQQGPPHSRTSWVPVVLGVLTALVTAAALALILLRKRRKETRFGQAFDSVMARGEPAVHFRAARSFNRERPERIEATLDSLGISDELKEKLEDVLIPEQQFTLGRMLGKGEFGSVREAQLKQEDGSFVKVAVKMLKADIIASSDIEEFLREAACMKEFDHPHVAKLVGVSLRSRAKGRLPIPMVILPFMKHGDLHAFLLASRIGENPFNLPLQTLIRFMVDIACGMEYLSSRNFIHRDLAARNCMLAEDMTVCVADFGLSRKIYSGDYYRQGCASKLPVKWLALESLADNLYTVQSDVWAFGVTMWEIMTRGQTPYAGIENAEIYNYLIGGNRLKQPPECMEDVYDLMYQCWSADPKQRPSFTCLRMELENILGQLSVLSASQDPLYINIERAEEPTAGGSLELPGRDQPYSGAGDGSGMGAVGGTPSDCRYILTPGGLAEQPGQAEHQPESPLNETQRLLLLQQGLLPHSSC
How it was run: (§1)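 Steps: kinase transfers radiolabelled phosphate from ATP onto a positively charged substrate; the substrate is trapped on a negatively charged filter; bound radioactivity is counted by scintillation and compared with uninhibited (100%) activity.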

266 human kinases [2] = target: T2, 266 human kinases (Homo sapiens, UniProt Q9UL54); conditions: TAO2(h); 100 μM
T2 sequence (Q9UL54 1-1235): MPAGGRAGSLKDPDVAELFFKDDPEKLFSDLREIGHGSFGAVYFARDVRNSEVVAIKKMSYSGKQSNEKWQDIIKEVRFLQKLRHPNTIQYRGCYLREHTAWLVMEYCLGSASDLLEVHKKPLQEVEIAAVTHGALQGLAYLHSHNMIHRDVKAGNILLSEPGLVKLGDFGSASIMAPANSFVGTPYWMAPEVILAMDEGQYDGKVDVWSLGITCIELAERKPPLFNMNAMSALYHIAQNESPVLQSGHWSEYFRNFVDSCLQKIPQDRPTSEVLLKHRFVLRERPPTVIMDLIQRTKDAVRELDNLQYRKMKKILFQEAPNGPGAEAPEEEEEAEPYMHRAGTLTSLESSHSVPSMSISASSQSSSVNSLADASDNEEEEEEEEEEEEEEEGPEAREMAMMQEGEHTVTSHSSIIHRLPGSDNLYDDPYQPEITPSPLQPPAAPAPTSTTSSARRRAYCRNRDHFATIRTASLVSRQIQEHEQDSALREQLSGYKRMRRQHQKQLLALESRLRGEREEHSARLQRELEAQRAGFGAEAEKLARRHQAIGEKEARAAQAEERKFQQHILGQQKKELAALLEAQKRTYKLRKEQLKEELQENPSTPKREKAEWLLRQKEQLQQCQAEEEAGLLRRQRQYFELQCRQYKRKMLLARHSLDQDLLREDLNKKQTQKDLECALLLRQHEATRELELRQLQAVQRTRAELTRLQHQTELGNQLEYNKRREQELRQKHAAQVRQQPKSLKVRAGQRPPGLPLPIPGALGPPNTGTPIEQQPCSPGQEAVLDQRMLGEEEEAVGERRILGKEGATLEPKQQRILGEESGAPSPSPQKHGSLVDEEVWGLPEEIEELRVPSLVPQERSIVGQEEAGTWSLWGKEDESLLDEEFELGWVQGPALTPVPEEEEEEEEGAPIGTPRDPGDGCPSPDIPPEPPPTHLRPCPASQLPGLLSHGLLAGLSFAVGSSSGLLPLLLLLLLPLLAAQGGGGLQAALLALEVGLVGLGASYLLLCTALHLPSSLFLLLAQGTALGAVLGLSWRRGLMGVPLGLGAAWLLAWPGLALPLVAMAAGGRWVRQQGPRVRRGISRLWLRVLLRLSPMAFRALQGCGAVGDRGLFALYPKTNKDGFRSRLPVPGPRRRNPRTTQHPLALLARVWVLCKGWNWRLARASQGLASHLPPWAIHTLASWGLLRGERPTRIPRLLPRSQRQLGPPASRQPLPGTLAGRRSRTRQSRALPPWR
How it was run: as §1

266 human kinases [3] = target: 266 human kinases (Homo sapiens, UniProt Q9Y3S1); conditions: WNK2(h); 100 μM
266 human kinases (Homo sapiens, UniProt Q9Y3S1), sequence (Q9Y3S1 whole entry): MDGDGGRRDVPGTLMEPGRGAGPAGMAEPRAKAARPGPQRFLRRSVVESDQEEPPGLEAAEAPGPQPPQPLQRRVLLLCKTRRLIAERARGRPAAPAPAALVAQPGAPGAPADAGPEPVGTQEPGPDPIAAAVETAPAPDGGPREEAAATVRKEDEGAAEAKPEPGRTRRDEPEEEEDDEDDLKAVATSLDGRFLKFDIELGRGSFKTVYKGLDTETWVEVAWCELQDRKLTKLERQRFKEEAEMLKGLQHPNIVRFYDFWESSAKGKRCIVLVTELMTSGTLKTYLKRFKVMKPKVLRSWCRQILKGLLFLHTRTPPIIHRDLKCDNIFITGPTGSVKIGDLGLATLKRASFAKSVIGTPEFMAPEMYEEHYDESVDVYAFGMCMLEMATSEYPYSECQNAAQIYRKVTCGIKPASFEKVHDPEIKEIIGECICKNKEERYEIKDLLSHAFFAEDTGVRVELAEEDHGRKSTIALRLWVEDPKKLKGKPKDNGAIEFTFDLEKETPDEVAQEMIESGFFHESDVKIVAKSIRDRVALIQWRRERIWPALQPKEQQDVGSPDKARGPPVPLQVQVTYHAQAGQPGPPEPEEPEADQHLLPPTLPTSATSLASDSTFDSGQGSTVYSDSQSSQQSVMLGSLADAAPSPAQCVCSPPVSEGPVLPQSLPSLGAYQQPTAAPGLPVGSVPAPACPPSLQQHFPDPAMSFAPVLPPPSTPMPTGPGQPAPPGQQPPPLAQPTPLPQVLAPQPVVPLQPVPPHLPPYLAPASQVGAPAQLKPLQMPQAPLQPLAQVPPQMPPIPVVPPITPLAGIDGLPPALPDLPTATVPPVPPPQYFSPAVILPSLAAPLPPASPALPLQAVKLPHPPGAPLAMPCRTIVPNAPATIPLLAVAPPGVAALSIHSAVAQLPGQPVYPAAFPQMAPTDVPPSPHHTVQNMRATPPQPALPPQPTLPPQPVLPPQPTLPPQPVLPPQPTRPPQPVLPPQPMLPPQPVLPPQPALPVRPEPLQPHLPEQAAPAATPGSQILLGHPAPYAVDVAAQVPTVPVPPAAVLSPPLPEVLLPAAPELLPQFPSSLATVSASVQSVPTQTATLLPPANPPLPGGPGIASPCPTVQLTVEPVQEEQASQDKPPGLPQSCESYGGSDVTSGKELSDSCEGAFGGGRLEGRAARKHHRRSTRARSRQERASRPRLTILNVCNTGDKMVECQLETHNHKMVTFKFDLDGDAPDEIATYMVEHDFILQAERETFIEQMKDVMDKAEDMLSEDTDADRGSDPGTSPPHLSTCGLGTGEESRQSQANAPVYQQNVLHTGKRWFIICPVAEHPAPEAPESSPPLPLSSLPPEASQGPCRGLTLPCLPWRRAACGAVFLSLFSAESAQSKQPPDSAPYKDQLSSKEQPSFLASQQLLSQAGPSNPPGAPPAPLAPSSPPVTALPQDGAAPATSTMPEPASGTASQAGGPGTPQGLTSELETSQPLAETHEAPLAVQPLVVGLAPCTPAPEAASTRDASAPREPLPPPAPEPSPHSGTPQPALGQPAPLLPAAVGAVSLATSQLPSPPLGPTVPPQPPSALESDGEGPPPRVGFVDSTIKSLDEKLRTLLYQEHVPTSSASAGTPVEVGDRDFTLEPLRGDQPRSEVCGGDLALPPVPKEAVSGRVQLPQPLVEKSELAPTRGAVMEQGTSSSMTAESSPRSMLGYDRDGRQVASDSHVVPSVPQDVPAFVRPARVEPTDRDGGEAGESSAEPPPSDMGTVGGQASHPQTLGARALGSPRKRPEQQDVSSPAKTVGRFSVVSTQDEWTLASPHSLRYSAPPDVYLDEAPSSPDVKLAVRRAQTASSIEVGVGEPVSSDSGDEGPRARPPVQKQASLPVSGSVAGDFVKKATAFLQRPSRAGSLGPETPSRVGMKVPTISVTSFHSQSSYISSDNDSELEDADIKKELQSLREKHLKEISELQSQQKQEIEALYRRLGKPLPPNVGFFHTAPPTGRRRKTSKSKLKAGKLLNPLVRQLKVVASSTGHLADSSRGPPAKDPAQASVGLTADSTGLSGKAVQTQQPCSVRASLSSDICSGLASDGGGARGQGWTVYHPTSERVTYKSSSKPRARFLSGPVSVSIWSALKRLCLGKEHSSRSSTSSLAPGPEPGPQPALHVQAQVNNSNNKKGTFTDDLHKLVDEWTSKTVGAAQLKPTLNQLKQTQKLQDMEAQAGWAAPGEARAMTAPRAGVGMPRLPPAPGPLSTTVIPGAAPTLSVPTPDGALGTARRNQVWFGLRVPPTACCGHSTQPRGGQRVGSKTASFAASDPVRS
How it was run: as §1

266 human kinases [4] = target: 266 human kinases (Homo sapiens, UniProt Q9UM73); conditions: ALK(h); 100 μM
266 human kinases (Homo sapiens, UniProt Q9UM73), sequence (Q9UM73 19-1620): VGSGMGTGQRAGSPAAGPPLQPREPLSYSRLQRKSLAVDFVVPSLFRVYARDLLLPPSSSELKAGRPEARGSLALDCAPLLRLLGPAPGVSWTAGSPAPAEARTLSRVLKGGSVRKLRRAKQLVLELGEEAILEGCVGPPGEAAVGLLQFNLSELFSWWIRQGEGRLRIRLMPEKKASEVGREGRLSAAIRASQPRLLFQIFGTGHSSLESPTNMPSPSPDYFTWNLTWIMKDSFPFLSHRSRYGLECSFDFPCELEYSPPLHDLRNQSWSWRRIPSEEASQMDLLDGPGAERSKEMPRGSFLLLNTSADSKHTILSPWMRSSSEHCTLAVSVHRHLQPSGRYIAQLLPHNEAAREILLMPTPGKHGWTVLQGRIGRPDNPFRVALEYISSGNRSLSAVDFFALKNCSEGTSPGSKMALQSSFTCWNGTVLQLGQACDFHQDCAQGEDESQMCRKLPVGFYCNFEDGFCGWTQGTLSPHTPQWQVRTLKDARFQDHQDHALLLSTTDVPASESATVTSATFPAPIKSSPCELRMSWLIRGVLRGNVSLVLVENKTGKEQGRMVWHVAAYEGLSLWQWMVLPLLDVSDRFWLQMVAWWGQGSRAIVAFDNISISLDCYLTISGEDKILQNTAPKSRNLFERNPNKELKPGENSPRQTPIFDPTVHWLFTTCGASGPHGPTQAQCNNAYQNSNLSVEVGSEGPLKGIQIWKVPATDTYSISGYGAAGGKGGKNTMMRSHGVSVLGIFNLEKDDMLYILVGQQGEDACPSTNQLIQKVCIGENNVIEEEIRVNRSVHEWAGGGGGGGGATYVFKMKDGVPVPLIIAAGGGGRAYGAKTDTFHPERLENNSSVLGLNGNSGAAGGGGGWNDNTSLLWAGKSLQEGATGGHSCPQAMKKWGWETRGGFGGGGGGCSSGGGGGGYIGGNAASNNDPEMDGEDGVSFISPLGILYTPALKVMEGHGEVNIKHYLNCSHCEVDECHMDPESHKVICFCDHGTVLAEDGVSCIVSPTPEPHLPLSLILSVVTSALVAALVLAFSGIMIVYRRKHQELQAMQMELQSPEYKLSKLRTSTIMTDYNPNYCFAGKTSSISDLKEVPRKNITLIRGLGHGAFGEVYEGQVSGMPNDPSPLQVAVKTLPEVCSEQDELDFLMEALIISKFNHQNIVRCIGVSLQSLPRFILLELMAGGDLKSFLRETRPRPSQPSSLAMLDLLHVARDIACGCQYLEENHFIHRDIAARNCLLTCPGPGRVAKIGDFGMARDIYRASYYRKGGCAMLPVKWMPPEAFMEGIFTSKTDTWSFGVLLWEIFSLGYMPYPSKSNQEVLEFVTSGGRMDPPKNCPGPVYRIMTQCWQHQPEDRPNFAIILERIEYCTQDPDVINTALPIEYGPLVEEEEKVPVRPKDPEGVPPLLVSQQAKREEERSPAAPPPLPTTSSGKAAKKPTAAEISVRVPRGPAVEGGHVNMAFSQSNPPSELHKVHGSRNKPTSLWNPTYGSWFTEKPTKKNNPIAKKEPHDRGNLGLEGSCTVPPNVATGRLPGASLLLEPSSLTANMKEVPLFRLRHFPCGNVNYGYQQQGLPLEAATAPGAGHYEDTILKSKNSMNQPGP
How it was run: as §1

Sequence	% activity (266 human kinases [1]) [%]	% activity (266 human kinases [2]) [%]	% activity (266 human kinases [3]) [%]	% activity (266 human kinases [4]) [%]
HRRIKAWLKKIKALARQLGVAA (mammal) [MMI-0500]	63	15	8	12
YARAAARQARAKALNRQLGVA (mammal) [MMI-0200]	88	93	94	95
